Experimental data as given in patent US20200239535A1.

Target: cell surface of 293 AAV cells (the filing names αvβ3 and αvβ5 integrins as the receptors of RGD4C)
Assay: 200000 TU/cell incubated 1 h on ice with 293AAV cells; unbound particles recovered from the medium, titrated on TG1 E. coli and counted as colonies; value relative to its control

Row | Substance | binding efficiency (percentage of vectors bound to the cell surface)
1 | M13.PAAV vector (non-targeted phagemid/AAV particle lacking RGD4C) (from UniProt P69168 19-424) | 7.1%
2 | RGD.PAAV vector (RGD4C-targeted phagemid/AAV particle displaying the RGD4C peptide on the pIII minor coat protein) | 58.2%
